The chains are these.
B1: BIIB-12-1298 (antibody, V domains shown)
VH: QVQLVESGGGVVQPGRSLRLSCAASGFTFSSYGMHWVRQAPGKGLEWVAVISYDGSNKYYADSVKGRFTISRDNSKNTLYLQMNSLRAEDTAVYYCAKGGSDRRVGSWGQGTLVTVSS
VL: DIQMTQSPSSVSASVGDRVTITCRASQGISSWLAWYQQKPGKAPKLLIYAASSLQSGVPSRFSGSGSGTDFTLTISSLQPEDFATYYCQQTNSLPITFGGGTKVEIK
B2: BIIB-12-1319 (antibody, V domains shown)
VH: QVQLVESGGGVVQPGRSLRLSCAASGFTFSSYGMHWVRQAPGKGLEWVAVISYDGSNKYYADSVKGRFTISRDNSKNTLYLQMNSLRAEDTAVYYCARTGYHRSVYYWGQGTLVTVSS
VL: EIVMTQSPATLSVSPGERATLSCRASQSVSSNLAWYQQKPGQAPRLLIYGASTRATGIPARFSGSGSGTEFTLTISSLQSEDFAVYYCQQASNFPPTFGGGTKVEI
B3: BIIB-12-921 (antibody, V domains shown)
VH: QVQLVESGGGVVQPGRSLRLSCAASGFTFSSYGMHWVRQAPGKGLEWVAVISYDGSNKYYADSVKGRFTISRDNSKNTLYLQMNSLRAEDTAVYYCAKVGDRGTRAFDPWGQGTLVTVSS
VL: DIQMTQSPSSVSASVGDRVTITCRASQGISRWLAWYQQKPGKAPKLLIYAASSLQSGVPSRFSGSGSGTDFTLTISSLQPEDFATYYCQQGNVFPLTFGGGTKVEIK
B4: BIIB-12-1317 (antibody, V domains shown)
VH: QVQLVESGGGVVQPGRSLRLSCAASGFTFSSYGMHWVRQAPGKGLEWVAVISYDGSNKYYADSVKGRFTISRDNSKNTLYLQMNSLRAEDTAVYYCARGVGGHDTRWGQGTLVTVSS
VL: DIQMTQSPSSVSASVGDRVTITCRASQGISSWLAWYQQKPGKAPKLLIYAASSLQSGVPSRFSGSGSGTDFTLTISSLQPEDFATYYCQQRHSLPPTFGGGTKVEIK
B5: BIIB-12-1293 (antibody, V domains shown)
VH: QVQLVQSGAEVKKPGASVKVSCKASGYTFTSYYMHWVRQAPGQGLEWMGIINPSGGSTSYAQKFQGRVTMTRDTSTSTVYMELSSLRSEDTAVYYCARGSGGKHRGLDVWGQGTMVTVSS
VL: DIQMTQSPSSVSASVGDRVTITCRASQGISSWLAWYQQKPGKAPKLLIYAASSLQSGVPSRFSGSGSGTDFTLTISSLQPEDFATYYCQQANIFPFTFGGGTKVEIK
B6: BIIB-12-891 (antibody, V domains shown)
VH: QVQLVQSGAEVKKPGASVKVSCKASGYTFTSYYIHWVRQAPGQGLEWMGIINPSGGSTSYAQKFQGRVTMTRDTSTSTVYMELSSLRSEDTAVYYCARASIYRGLGAFDIWGQGTMVTVSS
VL: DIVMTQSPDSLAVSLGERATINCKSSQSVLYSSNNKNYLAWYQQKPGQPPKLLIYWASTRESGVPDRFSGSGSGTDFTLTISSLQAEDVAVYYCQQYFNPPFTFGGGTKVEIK
B7: BIIB-12-1306 (antibody, V domains shown)
VH: QVQLQESGPGLVKPSQTLSLTCTVSGGSISSGGYYWSWIRQHPGKGLEWIGSIYYSGSTYYNPSLKSRVTISVDTSKNQFSLKLSSVTAADTAVYYCARGAGGSAPWGQGTLVTVSS
VL: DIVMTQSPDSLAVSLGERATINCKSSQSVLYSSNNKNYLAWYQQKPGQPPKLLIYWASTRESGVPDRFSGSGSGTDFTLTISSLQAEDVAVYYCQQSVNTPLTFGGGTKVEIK
B8: BIIB-12-1311 (antibody, V domains shown)
VH: QVQLVESGGGVVQPGRSLRLSCAASGFTFSSYGMHWVRQAPGKGLEWVAVISYDGSNKYYADSVKGRFTISRDNSKNTLYLQMNSLRAEDTAVYYCAKGRHYWAVWGQGTLVTVSS
VL: EIVLTQSPATLSLSPGERATLSCRASQSVSSYLAWYQQKPGQAPRLLIYDASNRATGIPARFSGSGSGTDFTLTISSLEPEDFAVYYCQQASNLPPTFGGGTKVEIK
B9: BIIB-12-1297 (antibody, V domains shown)
VH: QVQLVESGGGVVQPGRSLRLSCAASGFTFSSYGMHWVRQAPGKGLEWVAVISYDGSNKYYADSVKGRFTISRDNSKNTLYLQMNSLRAEDTAVYYCARSGGQTHRRSMDVWGQGTTVTVSS
VL: EIVLTQSPATLSLSPGERATLSCRASQSVSRYLAWYQQKPGQAPRLLIYDASNRATGIPARFSGSGSGTDFTLTISSLEPEDFAVYYCQQGNNWPPTFGGGTKVEIK
B10: BIIB-12-1318 (antibody, V domains shown)
VH: QVQLVESGGGVVQPGRSLRLSCAASGFTFSSYGMHWVRQAPGKGLEWVAVISYDGSNKYYADSVKGRFTISRDNSKNTLYLQMNSLRAEDTAVYYCARKGDYRSGSYSGRAFGIWGQGTMVTVSS
VL: EIVLTQSPATLSLSPGERATLSCRASQSVSSYLAWYQQKPGQAPRLLIYDASNRATGIPARFSGSGSGTDFTLTISSLEPEDFAVYYCQQLNNWPPTFGGGTKVEIK
B11: BIIB-12-892 (antibody, V domains shown)
VH: QVQLVQSGAEVKKPGASVKVSCKASGYTFTSYYMHWVRQAPGQGLEWMGIINPSGGSTSYAQKFQGRVTMTRDTSTSTVYMELSSLRSEDTAVYYCARGLGRRTPTAFDIWGQGTMVTVSS
VL: EIVLTQSPATLSLSPGERATLSCRASQSVSSYLAWYQQKPGQAPRLLIYDASNRATGIPARFSGSGSGTDFTLTISSLEPEDFAVYYCQQRLNLPLTFGGGTKVEIK
B12: BIIB-12-1294 (antibody, V domains shown)
VH: QVQLVQSGAEVKKPGASVKVSCKASGYTFTSYYMHWVRQAPGQGLEWMGIINPSGGSTSYAQKFQGRVTMTRDTSTSTVYMELSSLRSEDTAVYYCARGTRSSRDMDVWGQGTTVTVSS
VL: DIQMTQSPSTLSASVGDRVTITCRASQSISSWLAWYQQKPGKAPKLLIYKASSLESGVPSRFSGSGSGTEFTLTISSLQPDDFATYYCQQVNTFPFTFGGGTKVEIK
B13: BIIB-12-929 (antibody, V domains shown)
VH: QVQLVQSGAEVKKPGASVKVSCKASGYTFTSYYMHWVRQAPGQGLEWMGIINPSGGSTSYAQKFQGRVTMTRDTSTSTVYMELSSLRSEDTAVYYCARDQGYSRSFDIWGQGTMVTVSS
VL: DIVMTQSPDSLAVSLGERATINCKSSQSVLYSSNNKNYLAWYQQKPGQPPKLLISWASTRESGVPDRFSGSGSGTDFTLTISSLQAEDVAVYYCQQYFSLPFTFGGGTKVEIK
B14: BIIB-12-1325 (antibody, V domains shown)
VH: QVQLVQSGAEVKKPGASVKVSCKASGYTFTSYYMVWVRQAPGQGLEWMGIINPSGGSTSYAQKFQGRVTMTRDTSTSTVYMELSSLRSEDTAVYYCARGGRYMLDPWGQGTLVTVSS
VL: DIQMTQSPSTLSASVGDRVTITCRASQSISSWLAWYQQKPGKAPKLLIYKASSLESGVPSRFSGSGSGTEFTLTISSLQPDDFATYYCQQSNRYPRTFGGGTKVEIK
B15: BIIB-12-899 (antibody, V domains shown)
VH: QVQLVQSGAEVKKPGASVKVSCKASGYTFTSYYMHWVRQAPGQGLEWMGIINPSGGSTSYAQKFQGRVTMTRDTSTSTVYMELSSLRSEDTAVYYCARGPRTSSPLYFDLWGRGTLVTVSS
VL: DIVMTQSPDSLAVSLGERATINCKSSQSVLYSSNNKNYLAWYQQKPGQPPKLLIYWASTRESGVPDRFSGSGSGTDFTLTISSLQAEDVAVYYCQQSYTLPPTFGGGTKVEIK
B16: BIIB-12-1315 (antibody, V domains shown)
VH: QVQLVQSGAEVKKPGASVKVSCKASGYTFTSYYMVWVRQAPGQGLEWMGIINPSGGSTSYAQKFQGRVTMTRDTSTSTVYMELSSLRSEDTAVYYCARGRPSSKRVTYFDYWGQGTLVTVSS
VL: EIVMTQSPATLSVSPGERATLSCRASQSVSSNLAWYQQKPGQAPRLLIYGASTRATGIPARFSGSGSGTEFTLTISSLQSEDFAVYYCQQVFNWPPWTFGGGTKVEIK
B17: BIIB-12-926 (antibody, V domains shown)
VH: QVQLVQSGAEVKKPGASVKVSCKASGYTFTSYYMHWVRQAPGQGLEWMGIINPSGGSTSYAQKFQGRVTMTRDTSTSTVYMELSSLRSEDTAVYYCARDGRMARGASPDYWGQGTLVTVSS
VL: EIVMTQSPATLSVSPGERATLSCRASQSVSSNLAWYQQKPGQAPRLLIYGASTRATGIPARFSGSGSGTEFTLTISSLQSEDFAVYYCQQHSFWPPTFGGGTKVEIK
B18: BIIB-12-1292 (antibody, V domains shown)
VH: QVQLVQSGAEVKKPGASVKVSCKASGYTFTSYYIHWVRQAPGQGLEWMGIINPSGGSTSYAQKFQGRVTMTRDTSTSTVYMELSSLRSEDTAVYYCARDPGRRQSSGFDYWGQGTLVTVSS
VL: EIVMTQSPATLSLSPGERATLSCRASQSVSSYLAWYQQKPGQAPRLLIYDSSNRATGIPARFSGSGSGTDFTLTISSLEPEDFAVYYCQQRLNFPFTFGGGTKVEIK
B19: BIIB-12-936 (antibody, V domains shown)
VH: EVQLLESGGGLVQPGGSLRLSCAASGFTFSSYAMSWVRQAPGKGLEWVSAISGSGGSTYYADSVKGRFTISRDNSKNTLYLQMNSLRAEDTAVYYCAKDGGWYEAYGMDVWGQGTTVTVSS
VL: EIVMTQSPATLSVSPGERATLSCRASQSVSSNLAWYQQKPGQAPRLLIYGASTRATGIPARFSGSGSGTEFTLTISSLQSEDFAVYYCQQSHNLPPTFGGGTKVEIK
B20: BIIB-12-917 (antibody, V domains shown)
VH: EVQLVQSGAEVKKPGESLKISCKGSGYSFTTYWIGWVRQMPGKGLEWMGIIYPGDSDTRYSPSFQGQVTISADKSISTAYLQWSSLKASDTAMYYCARGRFRPRGRFDYWGQGTLVTVSS
VL: EIVMTQSPATLSVSPGERATLSCRASQSVSSNLAWYQQKPGQAPRLLIYGASTRATGIPARFSGSGSGTEFTLTISSLQSEDFAVYYCQQLFNHPPTFGGGTKVEIK
B21: BIIB-12-904 (antibody, V domains shown)
VH: QVQLVESGGGVVQPGRSLRLSCAASGFTFSSYGMHWVRQAPGKGLEWVAVISYDGSNKYYADSVKGRFTISRDNSKNTLYLQMNSLRAEDTAVYYCARGSGRSGYHYWGQGTLVTVSS
VL: EIVMTQSPATLSVSPGERATLSCRASQSVSSNLAWYQQKPGQAPRLLIYGASTRATGIPARFSGSGSGTEFTLTISSLQSEDFAVYYCQQAFNWPPTFGGGTKVEIK
B22: BIIB-12-1324 (antibody, V domains shown)
VH: QVQLVQSGAEVKKPGASVKVSCKASGYTFTSYYMVWVRQAPGQGLEWMGIINPSGGSTSYAQKFQGRVTMTRDTSTSTVYMELSSLRSEDTAVYYCARLPRYSKRGLDVWGQGTMVTVSS
VL: EIVMTQSPATLSLSPGERATLSCRASQSVSSYLAWYQQKPGQAPRLLIYDSSNRATGIPARFSGSGSGTDFTLTISSLEPEDFAVYYCQQLVSWPTFGGGTKVEIK

This assay has as its target T1, FX zymogen (UniProt P00742 41-179; P00742 183-488).
T1 chain 1: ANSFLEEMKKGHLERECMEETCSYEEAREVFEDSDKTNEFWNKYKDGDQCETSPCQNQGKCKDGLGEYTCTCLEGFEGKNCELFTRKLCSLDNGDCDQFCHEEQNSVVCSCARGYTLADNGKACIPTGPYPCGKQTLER
T1 chain 2: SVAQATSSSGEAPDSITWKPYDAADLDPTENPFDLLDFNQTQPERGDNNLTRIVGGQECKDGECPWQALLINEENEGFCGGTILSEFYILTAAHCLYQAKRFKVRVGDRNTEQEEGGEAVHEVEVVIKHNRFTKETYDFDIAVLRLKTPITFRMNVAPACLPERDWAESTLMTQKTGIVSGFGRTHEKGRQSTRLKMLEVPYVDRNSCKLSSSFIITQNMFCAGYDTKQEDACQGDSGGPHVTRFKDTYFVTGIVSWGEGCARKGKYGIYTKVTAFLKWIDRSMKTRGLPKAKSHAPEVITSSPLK
In words: BLI. For orientation: Biolayer interferometry detects binding as a change in optical thickness at a sensor tip.
In general, Kd refers to a measure of binding affinity in units of concentration. High values mean lower affinity, low ones higher affinity. As for B1, the Kd came out at 33.5 nM.
As for B2, the figure is 31 nM; as for B3, 23.1 nM; as for B4, 27.1 nM.
As for B5, the figure is 26 nM; as for B6, 65.2 nM.
As for B7, the figure is 47 nM.
The molecule B8 returned an equilibrium dissociation constant (Kd) of 29 nM.
With B9 the figure was 26.8 nM; with B10, 56.1 nM; with B11, 33.2 nM.
With B12 the figure was 37.3 nM; with B13, 15.2 nM.
As for B14, the figure is 17.8 nM; as for B15, 34.2 nM.
As to B16, the affinity, expressed as Kd, was 53.2 nM.
As for B17, the figure is 24 nM.
As for B18, the figure is 65.5 nM.
As for B19, the figure is 66 nM; as for B20, 31.5 nM.
For B21, the Kd worked out at 42.3 nM.
As for B22, the figure is 67.7 nM.

(Values after patent US20230192896A1 (published 2023).)
